These results are taken from paper PMC7326492 (eLife, 2020).

B3: human ACVR2B.Fc fusion protein (Fc fusion)
chain: SGRGEAETRECIYYNANWELERTNQSGLERCEGEQDKRLHCYASWRNSSGTIELVKKGCWLDDFNCYDRQECVATEENPQVYFCCCEGNFCNERFTHLPEAGGPEVTYEPPPTAPTLLT

Test [1] concerns the target ACVR1 (UniProt Q04771).
Test [2] addresses B3. Description: SPR. Background: Surface plasmon resonance follows binding to a sensor surface in real time, without labels.
Test [3] has as its target B3. The test can be described thus: SPR.
The target in test [4] is T1, human ACVR2B.Fc fusion protein (human, UniProt Q13705 19-137).
T1 construct: Probably the extracellular domain (surmise); Captured on Protein A in one SPR experiment, coupled to the chip in another
T1 sequence (looked up): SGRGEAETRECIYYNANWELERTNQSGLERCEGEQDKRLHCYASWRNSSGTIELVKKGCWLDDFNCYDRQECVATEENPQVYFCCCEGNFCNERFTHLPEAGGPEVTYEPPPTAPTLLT
The test can be described thus: SPR; Biacore 3000, CM5 chip; human ACVR2B.Fc captured on covalently immobilised Protein A; ligand 100nM-0.14 nM flowed at 100 uL/minute; 25°C; HBS-EP (10 mM Hepes, 150 mM NaCl, 3.4 mM EDTA, 0.05% polysorbate 20, pH 7.4); 1:1 binding model with mass transport limitation. The following applies: both partners purified.

Test [5] deals with T2, ACVR1 (UniProt Q04771 21-123).
T2 sequence (looked up): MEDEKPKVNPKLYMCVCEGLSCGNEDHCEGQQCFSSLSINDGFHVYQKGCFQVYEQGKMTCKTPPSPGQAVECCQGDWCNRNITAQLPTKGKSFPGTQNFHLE
The test can be described thus: cell-based or functional assay.

The target in test [6] is T3, Activin A.∆D406 (human, UniProt P08476 311-426, ∆D406).
T3 sequence: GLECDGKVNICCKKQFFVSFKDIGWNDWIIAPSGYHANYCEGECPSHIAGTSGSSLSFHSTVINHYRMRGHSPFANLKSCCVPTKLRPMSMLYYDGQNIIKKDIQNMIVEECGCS
The test can be described thus: SPR.

Test [7] has as its target T3, Activin A.∆D406. Description: SPR. This is another data set of the same source.
For test [8], the target named is T4, monomeric extracellular domain of ACVR2B (UniProt Q13705 19-137).
T4 construct: ACVR2B, extracellular domain, monomeric
T4 sequence (looked up): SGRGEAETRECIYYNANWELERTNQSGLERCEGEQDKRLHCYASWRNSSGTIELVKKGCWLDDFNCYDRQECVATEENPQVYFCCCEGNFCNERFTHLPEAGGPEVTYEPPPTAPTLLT
Description: SPR; complexes of ligand•type II receptor extracellular domain formed at 1:2.5 ratio and injected over captured ACVR1B-Fc and ACVR1-Fc. As to conditions: both partners purified.

In the test with ACVR1 [1], “Activin A (from UniProt P08476 311-426) (ligand)” yielded an IC50 of inhibition of BMP7 (12 nM)-induced Smad1/5/8 luciferase reporter signal in HEK293 cells of 1400 pM.

B1: Activin A.Nod.F2TL (ligand)
chain: GLECDGKVNICCKKQFFVSFKDIGWNDWIIAPSGYHANYCEGECPSHIAGTSGSSLSFHSTVINHYRMRGHSPFANLKSCCVPTKLRPMSMLYYDNGRIIKKDIQNMIVEECGCS
What is called koff is the first-order rate constant of dissociation. A lower koff goes with a long-lived complex. Usually Kd stands for the constant that tells how readily two partners part at equilibrium. In turn, B1 returned a koff in test [2] of 0.00027 s⁻¹. In test [3], this molecule registered a Kd of 5.11 pM.

B2: Activin A.∆D406 (ligand, human, UniProt P08476 311-426, looked up)
chain: GLECDGKVNICCKKQFFVSFKDIGWNDWIIAPSGYHANYCEGECPSHIAGTSGSSLSFHSTVINHYRMRGHSPFANLKSCCVPTKLRPMSMLYYDGQNIIKKDIQNMIVEECGCS
notes: also called ActA.ΔD406; source: CHO-K1 cells expressing human Furin, stably expressed, purified (heparin, size exclusion, C4 reverse phase)
B2: the binding result in test [4] is listed as “binds”. In addition, the “IC50 of inhibition of BMP7 (12 nM)-induced Smad1/5/8 luciferase reporter signal in HEK293 cells” value with ACVR1 [5] is 20000 pM.
In turn, B3 registered a koff with Activin A.∆D406 [6] of 0.000254 s⁻¹. Besides, binding in the test with Activin A.∆D406 [7] was put at a Kd of 4.62 pM.

B4: Activin A (ligand, human, UniProt P08476 311-426, looked up)
chain: GLECDGKVNICCKKQFFVSFKDIGWNDWIIAPSGYHANYCEGECPSHIAGTSGSSLSFHSTVINHYRMRGHSPFANLKSCCVPTKLRPMSMLYYDDGQNIIKKDIQNMIVEECGCS
notes: Activin A (inhibin beta A chain), human, mature region cloned downstream of the mouse Inhba pro-peptide; the mature dimer was isolated; rhActivin A from R and D Systems is named only for the in vivo implants; also called wild-type Activin A; Activin A WT; source: CHO-K1 cells expressing human Furin, stably expressed, purified (heparin, size exclusion, C4 reverse phase)
For B4, the binding result in test [4] and in test [8] was “binds” in each case. Further, the koff in test [2] worked out at 8.46e-05 s⁻¹. In test [3], the Kd came out at 4.49 pM.
